Measured values: patent publication US20230079150A1, “METHODS FOR PREVENTION OR TREATMENT OF VIRUS-INDUCED ORGAN INJURY OR FAILURE WITH IL-22 DIMER” (priority 2020, published 2023)

Tests used:
C57BL/6 mice [1] = assay: LPS acute lung injury mouse model: lung RNA-seq pathway analysis; assay type: in vivo; conditions: high-dose LPS injury; lung tissue
Protocol: (§1) After approval from the Tulane University, Institutional Animal Care and Use Committee (protocol ID 607), equal numbers of male and female, 6-8 week old C57BL/6 mice (Charles River Laboratories, Cambridge, Mass.) were given acute lung injury (ALI) via intra-tracheally administered LPS. After obtaining appropriate depth of anesthesia using isoflurane, the high-dose LPS group (HDG) received 100 μg of LPS administered intra-tracheally. Approximately 30 minutes after LPS administration, 4 μg of F-652 was administered via tail vein injection (n=11), then compared to animals receiving sham injection (n=8) with phosphate-buffered saline (PBS). […]
Lung tissue was homogenized in Trizol buffer (Life Technologies) and total RNA extraction was performed according to Trizol manufacturer's instructions. […] RNA quantity and quality were assessed using NanoDrop and Agilent RNA ScreenTape with Agilent 4150 TapeStation system. SMART-Seq Stranded total RNA sample prep kit (Takara Bio USA, Inc.) was used for library preparation as specified in the user manual, followed by Agilent DNA 1000 kit validation with Agilent 4150 TapeStation system and quantification by Qubit 2.0 fluorometer. […] Cluster generation and 1×75 bp single read single-indexed sequencing was performed by High-Output kit v2.5 (75 cycles) on Illumina NextSeq 550. Raw reads were processed and mapped. […]

[2] = test system: H1N1 influenza (A/PR8 strain); assay type: in vivo, C57BL/6 mice
C57BL/6 mice [3] = assay: LPS acute lung injury mouse model: histopathology score; assay type: in vivo
Protocol: as §1, with “(PBS). In the low-dose LPS group (LDG), 33.3 μg of LPS was administered intra-tracheally. F-652 was again administered at 30 minutes (n=9) and compared to sham injected animals (n=9).” for “(PBS).”
Immediately after sacrifice, lung tissue from the right lower lobe was fixed in 4% paraformaldehyde and cut into sections. […] Lung injury induced by LPS was assessed by a blinded reviewer with a numerical scoring scale ranging from 0-4. Regions of lung injury in sections were scored for the extent of intimal thickening, alveolitis, and the presence of proteinaceous material in the alveolar space. […]

[4] = test system: H1N1 influenza (A/PR8 strain); assay type: in vivo, C57BL/6 mice; conditions: aged hosts; treated for 3 weeks
[5] = test system: H1N1 influenza (A/PR8 strain); assay type: in vivo, C57BL/6 mice; remark: listed apart in the source
IL-22Ra1 = IL-22Ra1 receptor immunofluorescence in HUVECs; assay type: cell-based, human
Protocol: HUVECs were fixed in 3.5% formaldehyde in PBS for 10 minutes. Cells were then blocked in 1% BSA in PBS for one hour. Cells were then incubated overnight in primary antibody for IL-22Ra1 (Invitrogen, Carlsbad, Calif.) diluted 1:100 in 1% BSA in PBS. Cells were then washed with PBS 3 times. Cells were incubated with secondary antibody, goat anti-mouse Alexa Fluor 488 (1:500; Invitrogen, A28175) diluted 1:500 in 1% BSA in PBS along with 0.1 μg/ml of 4,6 diamidino-2phylindole (DAPI) (Sigma) for one hour, followed by three washes in PBS. Cells were then cover slipped with Fluoro Gel mounting medium and imaged on an EVOS fluorescence microscope. Fluorescence intensity was quantified using ImageJ.

C57BL/6 mice [6] = assay: LPS acute lung injury mouse model: endothelial glycocalyx intensity in alveolar capillaries; assay type: in vivo
Protocol: as §1, with “(PBS). In the low-dose LPS group (LDG), 33.3 μg of LPS was administered intra-tracheally. F-652 was again administered at 30 minutes (n=9) and compared to sham injected animals (n=9).” for “(PBS).”
Paraformaldehyde-fixed lung segments were flash-frozen in Optimal Cutting Temperature (O.C.T) compound (Sakura) and sectioned on a cryostat. […] Glycocalyx and nuclei (4′,6-diamidino-2-phenylindole) were imaged on an Olympus BX51 fluorescence microscope under identical conditions. ImageJ software was used to quantify glycocalyx fluorescence intensity in the alveolar capillaries from a minimum of 20 regions of interest from 3 mice per condition.

HUVECs = assay: Real-time quantitative RT-PCR of mRNA levels in HUVECs; assay type: cell-based, human
Protocol: RNA was isolated with Trizol (Invitrogen) and used as a template for reverse transcriptase (reverse transcriptase mix sold under the trademark ISCRIPT® RT supermix, Bio-Rad). mRNAs were quantified by real-time PCR with the cyanine nucleic acid dye IQ SYBR® Green Supermix (Bio-Rad), and normalized against PPIA mRNA as the internal control gene. Relative changes in expression were calculated using the […] as established in prior studies. (Livak K J, Schmittgen T D. “Analysis of relative gene expression data using real-time quantitative PCR and the 2^−ΔΔCT method.” Methods. 2001; 25(4):402-8).

[7] = LPS and F-652 co-exposed, LPS only 1.49
[8] = LPS and F-652 compared to control

B1: F-652: recombinant IL-22 dimer consisting of two monomeric subunits each comprising a sequence shown in SEQ ID NO: 24 (protein)
chain 1: APISSHCRLDKSNFQQPYITNRTFMLAKEASLADNNTDVRLIGEKLFHGVSMSERCYLMKQVLNFTLEEVLFPQSDRFQPYMQEVVPFLARLSNRLSTCHIEGDDLHIQRNVQKLKDTVKKLGESGEIKAIGELDLLFMSLRNACIGSGGGSGGGGSGGGGSVECPPCPAPPVAGPSVFLFPPKPKDTLMISRTPEVTCVVVDVSHEDPEVQFNWYVDGVEVHNAKTKPREEQFNSTFRVVSVLTVVHQDWLNGKEYKCKVSNKGLPASIEKTISKTKGQPREPQVYTLPPSREEMTKNQVSLTCLVKGFYPSDIAVEWESNGQPENNYKTTPPMLDSDGSFFLYSKLTVDKSRWQQGNVFSCSVMHEALHNHYTQKSLSLSPGK
chain 2: APISSHCRLDKSNFQQPYITNRTFMLAKEASLADNNTDVRLIGEKLFHGVSMSERCYLMKQVLNFTLEEVLFPQSDRFQPYMQEVVPFLARLSNRLSTCHIEGDDLHIQRNVQKLKDTVKKLGESGEIKAIGELDLLFMSLRNACIGSGGGSGGGGSGGGGSVECPPCPAPPVAGPSVFLFPPKPKDTLMISRTPEVTCVVVDVSHEDPEVQFNWYVDGVEVHNAKTKPREEQFNSTFRVVSVLTVVHQDWLNGKEYKCKVSNKGLPASIEKTISKTKGQPREPQVYTLPPSREEMTKNQVSLTCLVKGFYPSDIAVEWESNGQPENNYKTTPPMLDSDGSFFLYSKLTVDKSRWQQGNVFSCSVMHEALHNHYTQKSLSLSPGK
modifications: homodimer
Question: How did the “Macrophage Inflammatory Protein-1β (CCL4) expression (RNA-seq)” value (C57BL/6 mice [1]) turn out when B1 was run?
Answer: Its value is “decrease”.

Question: What about the “Tnc, COL1a1, Col6a3 and Col1a2 expression (RNA-seq)” value (C57BL/6 mice [1]) of the same molecule?
Answer: The value was “increased”.

Question: And the “influenza specific CD8+ T cells (Total CD8+) compared to PBS control” value ([2]; aged mice, 3-week treatment)?
Answer: Its value is “significantly decreased”.

Question: And the “lung infiltrating neutrophils and inflammatory monocytes compared to 3-week F-652 treatment” value ([2]; aged mice, 6-week F-652 treatment)?
Answer: The value was “even more decrease”.

Question: And the “lung infiltrating neutrophils and inflammatory monocytes compared to PBS control” value ([2]; aged mice, F-652 200 μg/kg weekly for 3 weeks, Days 62-65 post-infection)?
Answer: The value was “decreased significantly”.

Question: And the “CD8+ T cells expressing CD69+ or CD69+/CD103+ compared to PBS control” value ([2]; both young and aged hosts)?
Answer: The value was “decreased significantly”.

Question: What about the “total number of CD8+ T cells” value ([2]; young mice, 3-week treatment) of the same molecule?
Answer: Its value is “no significant difference”.

Question: What about the “lung infiltrating neutrophils or inflammatory monocytes, PBS vs F-652” value ([2]; young mice, treated for 3 weeks or 6 weeks) of the same molecule?
Answer: Its value is “no significant difference”.

Question: What about the “histopathology injury score (scale 0-4)” value (C57BL/6 mice [3]; high-dose LPS injury, sham 2.0) of the same molecule?
Answer: Its value is 1.0.

Question: And the “histopathology scores, F-652 treated vs sham” value (C57BL/6 mice [3]; low dose LPS injury)?
Answer: Its value is “did not show any difference”.

Question: And the “lung histology (H&E, Masson's Trichrome, Sirius Red, PAS)” value [4]?
Answer: Its value is “ameliorates much of the H1N1-induced pathology”.

Question: What about the “tissue dampening (G) by FOT” value ([5]; aged H1N1 infected mice, baseline/tidal breathing, 3-week treatment) of the same molecule?
Answer: The value was “less resistance in small airways”.

Question: What about the “static compliance (Cst) from PV loops relative to PBS controls” value ([5]; aged mice) of the same molecule?
Answer: The value was “increased static compliance”.

Question: And the “impedance following maximization of available lung volume” value ([5]; following airway recruitment maneuver, aged and young)?
Answer: Its value is “has no effect”.

Question: What about the “IL-22Ra1 receptor expression compared to control” value (IL-22Ra1; F-652 alone) of the same molecule?
Answer: The value was “did not result in a difference”.

Question: What about the “IL-22Ra1 receptor relative expression” value (IL-22Ra1; LPS and F-652, control 1.00) of the same molecule?
Answer: The value was 0.69 RE.

Question: What about the “endothelial glycocalyx intensity, F-652 treated vs sham” value (C57BL/6 mice [6]; high dose LPS injury) of the same molecule?
Answer: Its value is “no significant difference”.

Question: And the “endothelial glycocalyx intensity in alveolar capillaries” value (C57BL/6 mice [6]; low dose LPS injury, sham 63.7)?
Answer: The value was 80.0 Arbitrary Units.

Question: And the ADAM17 levels (HUVECs; F-652 alone, control 1.09)?
Answer: The ADAM17 levels was 1.14 RE.

Question: What about the MMP-7 levels (HUVECs; F-652 alone, control 1.11) of the same molecule?
Answer: The MMP-7 levels was 1.23 RE.

Question: What about the “levels of any matrix metalloproteinase” value (HUVECs; F-652 only) of the same molecule?
Answer: Its value is “did not change”.

Question: What about the “VE-CAD RNA levels” value (HUVECs; F-652 only exposed, control 1.06) of the same molecule?
Answer: The value was 1.01 RE.

Question: And the ADAM17 levels (HUVECs; LPS and F-652, control 1.09, LPS 2.42)?
Answer: The ADAM17 levels was 1.22 RE.

Question: And the MMP-7 levels (HUVECs; LPS and F-652, control 1.11, LPS 2.99)?
Answer: Its MMP-7 levels is 1.53 RE.

Question: And the “MYD88 RNA expression” value (HUVECs; LPS and F-652 co-exposed, LPS only 1.48)?
Answer: Its value is 0.72 RE.

Question: What about the Exostosin-1 level (HUVECs; [7]) of the same molecule?
Answer: The Exostosin-1 level was 0.82 RE.

Question: What about the TIMP2 level (HUVECs; [7]) of the same molecule?
Answer: Its TIMP2 level is 0.82 RE.

Question: And the “IRAK4 mRNA expression” value (HUVECs; LPS and F-652 co-exposed, LPS only 1.51)?
Answer: The value was 0.86 RE.

Question: What about the Exostosin-2 level (HUVECs; LPS and F-652 co-exposed, LPS only 1.88) of the same molecule?
Answer: The Exostosin-2 level was 0.99 RE.

Question: What about the “TIRAP mRNA expression” value (HUVECs; LPS and F-652 co-exposed, LPS only 1.92) of the same molecule?
Answer: The value was 0.82 RE.

Question: What about the “VE-CAD RNA levels” value (HUVECs; LPS and F-652 co-exposed, control 1.06, LPS only 1.96) of the same molecule?
Answer: Its value is 0.81 RE.

Question: What about the “expression of MMP-9” value (HUVECs; [8]) of the same molecule?
Answer: The value was “did not change”.

Question: What about the “expression of Matrix Metalloproteinase-1 (MMP-1)” value (HUVECs; [8]) of the same molecule?
Answer: The value was “did not significantly change”.

Question: And the “relative expression of MMP-2” value (HUVECs; [8])?
Answer: Its value is “lower relative expression”.

Question: And the “relative expression of MMP-14” value (HUVECs; [8])?
Answer: The value was “lower relative expression”.

Question: And the MMP-9 relative expression (HUVECs; LPS and F-652 exposed compared to LPS exposed (2.99))?
Answer: The MMP-9 relative expression was 1.53 RE.

Question: What about the “TLR4 mRNA” value (HUVECs; all comparisons) of the same molecule?
Answer: The value was “not significantly different”.

Question: And the “Levels of TRAM, TRAF6, IRAK1, and TRIF” value (HUVECs; all group comparisons)?
Answer: The value was “not significantly different”.

Question: And the “Tissue inhibitor of metalloproteinase-1 (TIMP1)” value (HUVECs; among various HUVEC exposure groups)?
Answer: The value was “not different”.
